{
  "source": "paper PMC4339722",
  "about": "“Analysis of the Link between the Redox State and Enzymatic Activity of the HtrA (DegP) Protein from Escherichia coli” (PLoS ONE, 2015)",
  "molecular_target": "the molecule itself",
  "test": "cross-linking + SEC; with 2.5-, 5- or 10-fold molar excess of the 22-peptide …; HtrA variants 10 μM monomer, 15 min 37°C then 10 h 4°C in 20 mM HEPES-NaOH pH 8.0, 100 mM NaCl; BS^3 0.45 mM, 30 min room temperature; Superose 12 10/300 GL, 25°C",
  "data": [
    {"protein": "HtrA-S210A (oxidized control variant, as used in cross-linking and SEC) (enzyme, Escherichia coli, UniProt P0C0V0 27-474, looked up, disulfide bond Cys57-Cys69 (oxidized), HtrA (DegP) serine protease, Escherichia coli; polypeptide chain of 448 residues as printed; also called oxidized control (S210A); control HtrA) AETSSATTAQQMPSLAPMLEKVMPSVVSINVEGSTTVNTPRMPRNFQQFFGDDSPFCQEGSPFQSSPFCQGGQGGNGGGQQQKFMALGSGVIIDADKGYVVTNNHVVDNATVIKVQLSDGRKFDAKMVGKDPRSDIALIQIQNPKNLTAIKMADSDALRVGDYTVAIGNPFGLGETVTSGIVSALGRSGLNAENYENFIQTDAAINRGNAGGALVNLNGELIGINTAILAPDGGNIGIGFAIPSNMVKNLTSQMVEYGQVKRGELGIMGTELNSELAKAMKVDAQRGAFVSQVLPNSSAAKAGIKAGDVITSLNGKPISSFAALRAQVGTMPVGSKLTLGLLRDGKQVNVNLELQQSSQNQVDSSSIFNGIEGAEMSNKGKDQGVVVNNVKTGTPAAQIGLKKGDVIIGANQQAVKNIAELRKVLDSKPSVLALNIQRGDSTIYLLMQ", "values": [
      {"measurement": "stoichiometry N", "result": 12}
    ]}
  ]
}
